Results: patent US20250277048A1 (Regeneron, published 2025)
Blank lines part the entries; values can stand above or below the binder they belong to.

Assays:
[1] = molecular target: T1, human CD40 (hCD40) expressed on cells (human, UniProt P25942 21-277); assay: cell-based or functional assay
[2] = molecular target: T1, human CD40 (hCD40) expressed on cells; assay: cell-based or functional assay; remark: listed apart in the source
[3] = molecular target: T1, human CD40 (hCD40) expressed on cells; assay: cell-based or functional assay; remark: listed apart in the source
[4] = molecular target: T2, monkey CD40 extracellular domain expressed with a C-terminal myc-myc-hexahistidine tag (monkey); assay: SPR Biacore 4000, mAb captured, 25C
T2 construct: also called mfCD40-MMH; REGN3097
T2 chain: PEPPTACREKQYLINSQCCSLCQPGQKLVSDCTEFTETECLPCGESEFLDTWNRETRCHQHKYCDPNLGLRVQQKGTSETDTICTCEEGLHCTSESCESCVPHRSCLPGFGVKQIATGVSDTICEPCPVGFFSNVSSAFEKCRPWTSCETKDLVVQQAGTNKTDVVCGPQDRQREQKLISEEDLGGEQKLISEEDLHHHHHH
Protocol: (§1) The equilibrium dissociation constants (KD) for anti-CD40 bivalent and bispecific monoclonal antibodies (mAbs) were determined using a real-time surface plasmon resonance (SPR)-based Biacore 4000 biosensor. All binding studies were performed in 10 mM HEPES, 150 mM NaCl, 3 mM EDTA, and 0.05% v/v surfactant Tween-20, pH 7.4 (HBS-ET) running buffer at 25° C. and 37° C. The Biacore CM5 sensor surface was first derivatized by amine coupling with a monoclonal mouse anti-human Fc antibody (REGN2567) to capture anti-CD40 bivalent parental and anti-CD40×CD40 bispecific antibodies. Different concentrations of CD40 reagents, human CD40 extracellular domain expressed with a C-terminal myc-myc-hexahistidine tag (SEQ ID NO: 1114) (“hCD40-MMH”; REGN3094; SEQ ID NO: 53), monkey CD40 extracellular domain expressed with a C-terminal myc-myc-hexahistidine tag (SEQ ID NO: 1114) (“mfCD40-MMH”; REGN3097; SEQ ID NO: 54), and mouse CD40 extracellular domain expressed with a C-terminal myc-myc-hexahistidine tag (SEQ ID NO: 1114) (“mCD40-MMH”; REGN3098; SEQ ID NO: 55), at concentrations ranging from 3.7 nM to 100 nM or 3.3 nM to 90 nM in a series of 3-fold dilutions prepared in HBS-ET running buffer were injected at a flow rate of 30 μL/min for 4 minutes or 50 μL/min for 5 minutes. The dissociation of different CD40 reagents bound to anti-CD40 bivalent parental and anti-CD40×CD40 bispecific antibodies was monitored for 10 minutes in HBS-ET running buffer. At the end of each cycle, the anti-CD40 bivalent parental and anti-CD40×CD40 bispecific antibodies capture surface was regenerated using a 12 sec injection of 20 mM H₃PO₄.
(§2) The association rate (ka) and dissociation rate (kd) were determined by fitting the real-time binding sensorgrams to a 1:1 binding model with mass transport limitation using Scrubber 2.0c curve-fitting software. Binding dissociation equilibrium constant (KD) and dissociative half-life (t_{1/2}) were calculated from the kinetic rates as: KD(M)=kd/kₐ, and t_{1/2} (min)=[ln(2)/(60*kd)].

[5] = molecular target: T3, mouse CD40 extracellular domain expressed with a C-terminal myc-myc-hexahistidine tag (mouse); assay: SPR Biacore 4000, mAb captured, 25C
T3 construct: also called mCD40-MMH; REGN3098
T3 chain: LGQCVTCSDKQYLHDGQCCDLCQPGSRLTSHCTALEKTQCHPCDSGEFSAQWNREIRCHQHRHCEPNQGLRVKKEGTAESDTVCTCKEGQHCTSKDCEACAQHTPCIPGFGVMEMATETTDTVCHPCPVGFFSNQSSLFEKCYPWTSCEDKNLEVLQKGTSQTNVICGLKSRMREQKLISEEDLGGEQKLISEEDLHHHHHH
Protocol: as §1, §2

[6] = molecular target: T2, monkey CD40 extracellular domain …; assay: SPR Biacore 4000, mAb captured, 37C
Protocol: as §1, §2

[7] = molecular target: T4, human CD40 extracellular domain expressed with a C-terminal myc-myc-hexahistidine tag (human); assay: SPR Biacore 4000, mAb captured, 25C; 25° C.
T4 construct: also called hCD40-MMH; hCD40-mmH
Protocol: The equilibrium dissociation constants (KD) for anti-CD40 bivalent and bispecific monoclonal antibodies (mAbs) were determined using a real-time surface plasmon resonance (SPR)-based Biacore 4000 biosensor. All binding studies were performed in 10 mM HEPES, 150 mM NaCl, 3 mM EDTA, and 0.05% v/v surfactant Tween-20, pH 7.4 (HBS-ET) running buffer at 25° C. and 37° C. The Biacore CM5 sensor surface was first derivatized by amine coupling with a monoclonal mouse anti-human Fc antibody (REGN2567) to capture anti-CD40 bivalent parental and anti-CD40×CD40 bispecific antibodies. […] The dissociation of different CD40 reagents bound to anti-CD40 bivalent parental and anti-CD40×CD40 bispecific antibodies was monitored for 10 minutes in HBS-ET running buffer. […]
as §2

T1 sequence (P25942 21-277): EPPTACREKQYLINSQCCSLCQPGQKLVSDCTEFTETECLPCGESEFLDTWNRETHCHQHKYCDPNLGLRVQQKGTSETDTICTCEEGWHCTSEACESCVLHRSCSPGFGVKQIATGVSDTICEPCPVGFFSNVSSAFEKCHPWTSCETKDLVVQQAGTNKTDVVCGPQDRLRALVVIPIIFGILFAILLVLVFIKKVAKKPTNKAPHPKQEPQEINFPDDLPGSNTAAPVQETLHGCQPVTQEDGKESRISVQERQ

B3: 30027P2 (antibody, human IgG4 S228P, kappa, V domains shown)
VH: EVQLVESGGGLVQPGGSLRLSCAASGFTFSSYAMNWVRQAPGKGLEWVSIISGTIGKTYYADSVKGRFTISRDNSKNTLYLQMNSLRGEDTAVYYCAKDTERDITGSPFDYWGQGTLVTVSS
VL: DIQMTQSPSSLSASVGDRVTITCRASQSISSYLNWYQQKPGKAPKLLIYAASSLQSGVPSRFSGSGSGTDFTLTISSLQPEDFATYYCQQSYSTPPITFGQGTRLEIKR
notes: parental bivalent anti-CD40 mAb; common light chain; also called H4sH30027P2
- 100 nM Ag Bound [4]: 63.1 RU
- Kd [4]: 0.901 nM
- koff [4]: 0.00102 s⁻¹
- kon [4]: 1.14e+06 M⁻¹ s⁻¹
- t1/2 [4]: 11.3 min
- 100 nM Ag Bound [5]: 0.2 RU
- binding result [5]: no binding (tested: 100 nM)
- Kd [6]: 3.16 nM
- koff [6]: 0.00333 s⁻¹
- kon [6]: 1.05e+06 M⁻¹ s⁻¹
- t1/2 [6]: 3.5 min

B4: 21519P2 (antibody, human IgG4 S228P, kappa, V domains shown)
VH: QLQLQESGPGLVRPSETLSLTCSVSGASMNTNNYYWGWIRQPPGKGLEWIGSGYYNGNTYYNPSLKSRVTISVDTSKNQFSLKLNSVTAADTAVYYCARQTPPRIIGSPNIWGQGTMVTVSS
VL: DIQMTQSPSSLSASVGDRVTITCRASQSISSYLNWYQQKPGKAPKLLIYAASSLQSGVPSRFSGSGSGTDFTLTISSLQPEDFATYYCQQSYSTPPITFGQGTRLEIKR
notes: parental bivalent anti-CD40 mAb; common light chain; also called H4sH21519P2
- 100 nM Ag Bound [4]: 10.3 RU
- Kd [4]: 205 nM
- koff [4]: 0.181 s⁻¹
- kon [4]: 886000 M⁻¹ s⁻¹
- t1/2 [4]: 0.1 min
- 100 nM Ag Bound [5]: 0.4 RU
- binding result [5]: no binding (tested: 100 nM)
- kon [7]: 385000 M⁻¹ s⁻¹

B5: 21520P2 (antibody, human IgG4 S228P, kappa, V domains shown)
VH: EVQLVESGGGLVQPGGSLRLSCAASGFTFGSYGMAWVRQAPGKGLEWVSAISGSGDYTNYADSVKRRFTISRDNSKNTLYLQMSSLRAEDTAVYYCAKEKTGTTGYLYSGMDVWGQGTTVTVSS
VL: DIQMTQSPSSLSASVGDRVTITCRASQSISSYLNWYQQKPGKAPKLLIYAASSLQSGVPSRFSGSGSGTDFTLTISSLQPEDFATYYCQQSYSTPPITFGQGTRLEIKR
notes: parental bivalent anti-CD40 mAb; common light chain; also called H4sH21520P2
- 100 nM Ag Bound [4]: 10.1 RU
- Kd [4]: 67.7 nM
- koff [4]: 0.203 s⁻¹
- kon [4]: 3e+06 M⁻¹ s⁻¹
- t1/2 [4]: 0.1 min
- 100 nM Ag Bound [5]: -0.5 RU

Further lines, results first:

- % max blockade relative to no mAb, IL-6, donor 1 [1]: 84%
- % max blockade relative to no mAb, IL-6, donor 2 [1]: 92.7%
- % max blockade relative to no mAb, IL-6, donor 3 [1]: 92.7%
- % max blockade relative to no mAb, IL-10, donor 1 [2]: 80.7%
- % max blockade relative to no mAb, IL-10, donor 2 [2]: 86.9%
- % max blockade relative to no mAb, IL-10, donor 3 [2]: 89.3%
- % max blockade relative to no mAb, TNFa, donor 1 [3]: 44.7%
- % max blockade relative to no mAb, TNFa, donor 2 [3]: 74.1%
- % max blockade relative to no mAb, TNFa, donor 3 [3]: 70.4%
B1: REGN16431 (bispecific antibody, human IgG4 S228P, kappa)
heavy 1: QLQLQESGPGLVRPSETLSLTCSVSGASMNTNNYYWGWIRQPPGKGLEWIGSGYYNGNTYYNPSLKSRVTISVDTSKNQFSLKLNSVTAADTAVYYCARQTPPRIIGSPNIWGQGTMVTVSSASTKGPSVFPLAPCSRSTSESTAALGCLVKDYFPEPVTVSWNSGALTSGVHTFPAVLQSSGLYSLSSVVTVPSSSLGTKTYTCNVDHKPSNTKVDKRVESKYGPPCPPCPAPPVAGPSVFLFPPKPKDTLMISRTPEVTCVVVDVSQEDPEVQFNWYVDGVEVHNAKTKPREEQFNSTYRVVSVLTVLHQDWLNGKEYKCKVSNKGLPSSIEKTISKAKGQPREPQVYTLPPSQEEMTKNQVSLTCLVKGFYPSDIAVEWESNGQPENNYKTTPPVLDSDGSFFLYSRLTVDKSRWQEGNVFSCSVMHEALHNHYTQKSLSLSLGK
heavy 2: EVQLVESGGGLVQPGGSLRLSCAASGFTFGSYGMAWVRQAPGKGLEWVSAISGSGDYTNYADSVKRRFTISRDNSKNTLYLQMSSLRAEDTAVYYCAKEKTGTTGYLYSGMDVWGQGTTVTVSSASTKGPSVFPLAPCSRSTSESTAALGCLVKDYFPEPVTVSWNSGALTSGVHTFPAVLQSSGLYSLSSVVTVPSSSLGTKTYTCNVDHKPSNTKVDKRVESKYGPPCPPCPAPPVAGPSVFLFPPKPKDTLMISRTPEVTCVVVDVSQEDPEVQFNWYVDGVEVHNAKTKPREEQFNSTYRVVSVLTVLHQDWLNGKEYKCKVSNKGLPSSIEKTISKAKGQPREPQVYTLPPSQEEMTKNQVSLTCLVKGFYPSDIAVEWESNGQPENNYKTTPPVLDSDGSFFLYSRLTVDKSRWQEGNVFSCSVMHEALHNRFTQKSLSLSPGK
light: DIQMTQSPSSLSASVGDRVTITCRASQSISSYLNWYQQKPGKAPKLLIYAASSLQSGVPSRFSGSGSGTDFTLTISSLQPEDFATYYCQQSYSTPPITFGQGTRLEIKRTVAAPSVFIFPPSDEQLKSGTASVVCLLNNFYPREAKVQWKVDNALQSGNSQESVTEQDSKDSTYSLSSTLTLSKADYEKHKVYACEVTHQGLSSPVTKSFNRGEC
notes: D1 arm from 21519P2, D2 arm from 21520P2, common light chain; also called CD40xCD40 (21519 x 21520)

- % max blockade relative to no mAb, IL-6, donor 1 [1]: 83.5%
- % max blockade relative to no mAb, IL-6, donor 2 [1]: 92%
- % max blockade relative to no mAb, IL-6, donor 3 [1]: 92%
- % max blockade relative to no mAb, IL-10, donor 1 [2]: 81.5%
- % max blockade relative to no mAb, IL-10, donor 2 [2]: 94.5%
- % max blockade relative to no mAb, IL-10, donor 3 [2]: 90.6%
- % max blockade relative to no mAb, TNFa, donor 1 [3]: 53.5%
- % max blockade relative to no mAb, TNFa, donor 2 [3]: 68.4%
- % max blockade relative to no mAb, TNFa, donor 3 [3]: 69.1%
B2: REGN16432 (bispecific antibody, human IgG4 S228P, kappa)
heavy 1: EVQLVESGGGLVQPGGSLRLSCAASGFTFSSYAMNWVRQAPGKGLEWVSIISGTIGKTYYADSVKGRFTISRDNSKNTLYLQMNSLRGEDTAVYYCAKDTERDITGSPFDYWGQGTLVTVSSASTKGPSVFPLAPCSRSTSESTAALGCLVKDYFPEPVTVSWNSGALTSGVHTFPAVLQSSGLYSLSSVVTVPSSSLGTKTYTCNVDHKPSNTKVDKRVESKYGPPCPPCPAPPVAGPSVFLFPPKPKDTLMISRTPEVTCVVVDVSQEDPEVQFNWYVDGVEVHNAKTKPREEQFNSTYRVVSVLTVLHQDWLNGKEYKCKVSNKGLPSSIEKTISKAKGQPREPQVYTLPPSQEEMTKNQVSLTCLVKGFYPSDIAVEWESNGQPENNYKTTPPVLDSDGSFFLYSRLTVDKSRWQEGNVFSCSVMHEALHNHYTQKSLSLSLGK
heavy 2: EVQLVESGGGLVQPGGSLRLSCAASGFTFGSYGMAWVRQAPGKGLEWVSAISGSGDYTNYADSVKRRFTISRDNSKNTLYLQMSSLRAEDTAVYYCAKEKTGTTGYLYSGMDVWGQGTTVTVSSASTKGPSVFPLAPCSRSTSESTAALGCLVKDYFPEPVTVSWNSGALTSGVHTFPAVLQSSGLYSLSSVVTVPSSSLGTKTYTCNVDHKPSNTKVDKRVESKYGPPCPPCPAPPVAGPSVFLFPPKPKDTLMISRTPEVTCVVVDVSQEDPEVQFNWYVDGVEVHNAKTKPREEQFNSTYRVVSVLTVLHQDWLNGKEYKCKVSNKGLPSSIEKTISKAKGQPREPQVYTLPPSQEEMTKNQVSLTCLVKGFYPSDIAVEWESNGQPENNYKTTPPVLDSDGSFFLYSRLTVDKSRWQEGNVFSCSVMHEALHNRFTQKSLSLSPGK
light: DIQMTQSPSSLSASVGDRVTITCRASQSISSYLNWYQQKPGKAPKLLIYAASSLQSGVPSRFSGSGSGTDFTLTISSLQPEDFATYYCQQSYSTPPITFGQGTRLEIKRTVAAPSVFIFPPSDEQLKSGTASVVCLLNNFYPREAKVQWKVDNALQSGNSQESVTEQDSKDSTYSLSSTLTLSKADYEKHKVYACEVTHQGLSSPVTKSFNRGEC
notes: D1 arm from 30027P2, D2 arm from 21520P2, common light chain; also called CD40xCD40 (30027 x 21520)
